For assay [1], the target named is Δ19 spike protein of strain B.1.351 on pseudotyped lentivirus (SARS-CoV-2 (B.1.351)). Nature of the assay: cell-based or functional assay.
In assay [2] the target is Δ19 spike protein of B.1.617.2 on pseudotyped lentivirus (SARS-CoV-2 (B.1.617.2)). Nature of the assay: cell-based or functional assay.
Assay [3] concerns the target T1, human IgG1 Fc-tagged RBD, Wuhan-1 (SARS-CoV-2 (Wuhan-1); human, UniProt P0DTC2 319-541).
For assay [4], the target named is human IgG1 Fc-tagged RBD of Omicron (SARS-CoV-2 (Omicron); human).
Assay [5] addresses Δ19 spike protein of C.37 on pseudotyped lentivirus (SARS-CoV-2 (C.37)). Nature of the assay: cell-based or functional assay.
For assay [6], the target named is spike protein of authentic SARS-CoV-2 B.1.351 (SARS-CoV-2 (B.1.351)). Nature of the assay: cell-based or functional assay.
For assay [7], the target named is spike protein of authentic SARS-CoV-2 B.1.617.2 (SARS-CoV-2 (B.1.617.2)). Nature of the assay: cell-based or functional assay.
Assay [8] addresses spike protein of authentic SARS-CoV-2 B.1.617.2/AY1 (SARS-CoV-2 (B.1.617.2.AY1)). Nature of the assay: cell-based or functional assay.
The target in assay [9] is spike protein of authentic SARS-CoV-2 B.1.1.519/BA.1 (SARS-CoV-2 (BA.1)). Nature of the assay: cell-based or functional assay.
In assay [10] the target is spike protein of authentic SARS-CoV-2 B.1.1.519/BA.1.1 (SARS-CoV-2 (BA.1.1)). Nature of the assay: cell-based or functional assay.
For assay [11], the target named is spike protein of authentic SARS-CoV-2 B.1.1.519/BA.2 (SARS-CoV-2 (BA.2)). Nature of the assay: cell-based or functional assay.
Assay [12] deals with T1, human IgG1 Fc-tagged RBD, Wuhan-1. Nature of the assay: ELISA; DARPin coated, Fc-tagged RBD titrated.
Assay [13] deals with T2, human IgG1 Fc-tagged RBD, N439K (SARS-CoV-2; human, UniProt P0DTC2 319-541).
T2 construct: domain: RBD
Nature of the assay: ELISA; DARPin coated, Fc-tagged RBD titrated.

Assay [14] has as its target T3, human IgG1 Fc-tagged RBD, L452R (SARS-CoV-2; human, UniProt P0DTC2 319-541).
T3 construct: domain: RBD
Nature of the assay: ELISA; DARPin coated, Fc-tagged RBD titrated.

The target in assay [15] is T4, human IgG1 Fc-tagged RBD, L452R + E484Q (SARS-CoV-2; human, UniProt P0DTC2 319-541).
T4 construct: domain: RBD
Nature of the assay: ELISA; DARPin coated, Fc-tagged RBD titrated.

Assay [16] deals with T5, human IgG1 Fc-tagged RBD, L452R + T478K (SARS-CoV-2; human, UniProt P0DTC2 319-541).
T5 construct: domain: RBD
Nature of the assay: ELISA; DARPin coated, Fc-tagged RBD titrated.

The target of assay [17] is T6, human IgG1 Fc-tagged RBD, S477N (SARS-CoV-2; human, UniProt P0DTC2 319-541).
T6 construct: domain: RBD
Nature of the assay: ELISA; DARPin coated, Fc-tagged RBD titrated.

In assay [18] the target is T7, human IgG1 Fc-tagged RBD, T478K (SARS-CoV-2; human, UniProt P0DTC2 319-541).
T7 construct: domain: RBD
Nature of the assay: ELISA; DARPin coated, Fc-tagged RBD titrated.

The target of assay [19] is T8, human IgG1 Fc-tagged RBD, E484Q (SARS-CoV-2; human, UniProt P0DTC2 319-541).
T8 construct: domain: RBD
Nature of the assay: ELISA; DARPin coated, Fc-tagged RBD titrated.

Assay [20] addresses T9, human IgG1 Fc-tagged RBD, F486S (SARS-CoV-2; human, UniProt P0DTC2 319-541).
T9 construct: domain: RBD
Nature of the assay: ELISA; DARPin coated, Fc-tagged RBD titrated.

In assay [21] the target is T10, human IgG1 Fc-tagged RBD, E484K (SARS-CoV-2; human, UniProt P0DTC2 319-541).
T10 construct: domain: RBD
Nature of the assay: ELISA; DARPin coated, Fc-tagged RBD titrated.

For assay [22], the target named is T11, human IgG1 Fc-tagged RBD, F490S (SARS-CoV-2; human, UniProt P0DTC2 319-541).
T11 construct: domain: RBD
Nature of the assay: ELISA; DARPin coated, Fc-tagged RBD titrated.

The target of assay [23] is T12, human IgG1 Fc-tagged RBD, S494P (SARS-CoV-2; human, UniProt P0DTC2 319-541).
T12 construct: domain: RBD
Nature of the assay: ELISA; DARPin coated, Fc-tagged RBD titrated.

In assay [24] the target is T13, human IgG1 Fc-tagged RBD, K417E (SARS-CoV-2; human, UniProt P0DTC2 319-541).
T13 construct: domain: RBD
Nature of the assay: ELISA; DARPin coated, Fc-tagged RBD titrated.

Assay [25] deals with T14, human IgG1 Fc-tagged RBD, Y453F (SARS-CoV-2; human, UniProt P0DTC2 319-541).
T14 construct: domain: RBD
Nature of the assay: ELISA; DARPin coated, Fc-tagged RBD titrated.

Assay [26] addresses T15, human IgG1 Fc-tagged RBD, L455F (SARS-CoV-2; human, UniProt P0DTC2 319-541).
T15 construct: domain: RBD
Nature of the assay: ELISA; DARPin coated, Fc-tagged RBD titrated.

Assay [27] concerns the target T16, human IgG1 Fc-tagged RBD, G476S (SARS-CoV-2; human, UniProt P0DTC2 319-541).
T16 construct: domain: RBD
Nature of the assay: ELISA; DARPin coated, Fc-tagged RBD titrated.

The target of assay [28] is T17, human IgG1 Fc-tagged RBD, F486V (SARS-CoV-2; human, UniProt P0DTC2 319-541).
T17 construct: domain: RBD
Nature of the assay: ELISA; DARPin coated, Fc-tagged RBD titrated.

The target of assay [29] is T18, human IgG1 Fc-tagged RBD, K444Q (SARS-CoV-2; human, UniProt P0DTC2 319-541).
T18 construct: domain: RBD
Nature of the assay: ELISA; DARPin coated, Fc-tagged RBD titrated.

Assay [30] concerns the target T19, human IgG1 Fc-tagged RBD, V445A (SARS-CoV-2; human, UniProt P0DTC2 319-541).
T19 construct: domain: RBD
Nature of the assay: ELISA; DARPin coated, Fc-tagged RBD titrated.

Assay [31] addresses T20, human IgG1 Fc-tagged RBD, G446V (SARS-CoV-2; human, UniProt P0DTC2 319-541).
T20 construct: domain: RBD
Nature of the assay: ELISA; DARPin coated, Fc-tagged RBD titrated.

The values below come from patent US20250179152A1 (TEXAS A AND M UNIVERSITY SYSTEM, published 2025).

“And” between values parts separate entries of the source, which are not always exact repeats. Equal entries are not always repeated.

B1: SR16m (designed binder)
chain: MGSSDLGKKLLEAARAGQDDEVRILMANGADVNALDLFGVTPLHLAAERGHLEIVEVLLKNGADVNAGDAFGRTPLHLAALGGHLEIVEVLLKNGADVNACDLYGVTPLHLAAGLGHLEIVEVLLKNGADVNAQDKFGKTAFDISIDNGNEDLAEILQSSSKLAAALEHHHHHH
For B1, the “Neutralization IC50, pseudotyped lentivirus” value is 0.42 µM in assay [1] and 77.8 nM in assay [2].

B2: FSR22 (designed binder)
chain: MGSSHHHHHHSSGMEQKLISEEDLDGYIPEAPRDGQAYVRKDGEWVLLSTFLGGGGSLQGGGGSLQGSDLGKKLLEAARAGQDDEVRILMANGADVNACDPSGITPLHLAADKGHLEIVEVLLKYGADVNAMDVWGRTPLHLAAFTGHLEIVEVLLKYGADVNACDLNGYTPLHLAAGRGHLEIVEVLLKNGAGVNAQDKFGKTAFDISIDNGNEDLAEILQSSS
Take B2: the results for the Kd in [3] and in assay [4] were 12.3 nM and 2.63 nM, respectively. For the same molecule, the “Neutralization IC50, pseudotyped lentivirus” value in assay [1] was 9.5 ng/ml and 135 pM; in assay [2], 13.3 ng/ml and 188 pM; in [5] it was 6.3 ng/ml and 89 pM. Further, the “Neutralization IC50, authentic SARS-CoV-2 virus” value in assay [6] stood at 57.2 ngml^-1; in [7] it was 41.7 ngml^-1; in [8] it was 44.2 ngml^-1; in assay [9], 169 ngml^-1; in [10], 41.2 ngml^-1; in assay [11], 216 ngml^-1. The EC50 in assay [12] was 1.96 nM; in [13], 2.63 nM; in assay [14], 1.87 nM; in assay [15], 4.05 nM; in [16] it was 7.83 nM; in assay [17], 1.57 nM. For the same molecule, the EC50 in assay [18] came to 15.2 nM; in assay [19], 4.05 nM; in [20] it was 70.5 nM; in [21], 4.57 nM; in assay [22], 1.57 nM; in [23] it was 0.61 nM. Besides, the EC50 turned out to be 300 nM in assay [24]; 3.97 nM in assay [25]; 9.24 nM in [26]; 27.2 nM in assay [27]; 105 nM in assay [28]; 5.92 nM in [29]. The values for the EC50 in assay [30] and in assay [31] were 3.43 nM and 30.6 nM, respectively.

B3: FSR16m (designed binder)
chain: MGMEQKLISEEDLDGYIPEAPRDGQAYVRKDGEWVLLSTFLGGGGSLQGGGGSLQGSDLGKKLLEAARAGQDDEVRILMANGADVNALDLFGVTPLHLAAERGHLEIVEVLLKNGADVNAGDAFGRTPLHLAALGGHLEIVEVLLKNGADVNACDLYGVTPLHLAAGLGHLEIVEVLLKNGADVNAQDKFGKTAFDISIDNGNEDLAEILQSSSKLAAALEHHHHHH
Consider B3, for which the Kd in assay [3] is < 0.001 nM; in assay [4], 3.65 nM. In addition, the “Neutralization IC50, pseudotyped lentivirus” value was 18 pM and 1.3 ng/ml in assay [1]; 66 pM and 4.8 ng/mL in [2]; 0.9 ng/ml and 13 pM in assay [5]. The “Neutralization IC50, authentic SARS-CoV-2 virus” value in assay [6] stood at 3.4 ngml^-1; in assay [7], 2.2 ngml^-1; in assay [8], 3.3 ngml^-1; in [9], 44.7 ngml^-1; in [10], 7.4 ngml^-1; in assay [11] it was 33.3 ngml^-1. In addition, the half-maximal effective concentration (EC50) was determined as 0.59 nM in [12]; 0.75 nM in assay [13]; 0.37 nM in assay [14]; 0.21 nM in assay [15]; 0.13 nM in assay [16]; 0.63 nM in assay [17]. The EC50 in assay [18] is 0.19 nM; in assay [19], 0.34 nM; in assay [20] it was ≥ 300 nM; in [21] it was 0.21 nM; in [22], 0.15 nM; in assay [23], 0.26 nM. The EC50 in assay [24] is 300 nM; in assay [25], 0.74 nM; in assay [26], 0.1 nM; in assay [27], 5.73 nM; in [28] it was 300 nM; in assay [29] it was 1.03 nM. Further, the EC50 in assay [30] came to 0.46 nM; in assay [31], 7.65 nM.

B4: SR22 (designed binder)
chain: MGSSHHHHHHSSGLVPRGSHMEQKLISEEDLGSDLGKKLLEAARAGQDDEVRILMANGADVNACDPSGITPLHLAADKGHLEIVEVLLKYGADVNAMDVWGRTPLHLAAFTGHLEIVEVLLKYGADVNACDLNGYTPLHLAAGRGHLEIVEVLLKNGAGVNAQDKFGKTAFDISIDNGNEDLAEILQSSS
As to B4, the “Neutralization IC50, pseudotyped lentivirus” value was determined as 1.1 µM in [1] and 69.8 nM in assay [2].
